Source: publication PMC2830067 (Journal of molecular biology, 2009)

Target: T1, Aquifex aeolicus GatCAB B-subunit (GatB) (Aquifex aeolicus, UniProt O66766 1-478)
T1 sequence (looked up): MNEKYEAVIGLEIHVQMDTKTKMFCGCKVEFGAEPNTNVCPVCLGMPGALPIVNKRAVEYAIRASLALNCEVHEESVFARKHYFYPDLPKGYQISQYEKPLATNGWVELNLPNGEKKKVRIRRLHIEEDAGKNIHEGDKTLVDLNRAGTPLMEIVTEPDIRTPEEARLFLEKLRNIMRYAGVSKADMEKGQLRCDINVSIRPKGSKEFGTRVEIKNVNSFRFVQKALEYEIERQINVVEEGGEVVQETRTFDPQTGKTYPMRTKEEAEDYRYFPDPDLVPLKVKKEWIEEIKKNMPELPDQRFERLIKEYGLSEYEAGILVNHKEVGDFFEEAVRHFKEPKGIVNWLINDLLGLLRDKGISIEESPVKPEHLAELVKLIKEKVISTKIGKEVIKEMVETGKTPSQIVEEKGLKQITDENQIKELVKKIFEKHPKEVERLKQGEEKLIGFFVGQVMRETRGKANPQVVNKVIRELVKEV
Test: crystal structure

B1: Aquifex aeolicus GatCAB A-subunit (GatA) (enzyme, UniProt O66610 1-478, looked up)
chain: MLWKKSLSELRELLKRGEVSPKEVVESFYDRYNQTEEKVKAYITPLYGKALKQAESLKERELPLFGIPIAVKDNILVEGEKTTCASKILENFVAPYDATVIERLKKAGALIVGKTNLDEFAMGSSTEYSAFFPTKNPWDLERVPGGSSGGSAASVAVLSAPVSLGSDTGGSIRQPASFCGVIGIKPTYGRVSRYGLVAFASSLDQIGVFGRRTEDVALVLEVISGWDEKDSTSAKVPVPEWSEEVKKEVKGLKIGLPKEFFEYELQPQVKEAFENFIKELEKEGFEIKEVSLPHVKYSIPTYYIIAPSEASSNLARYDGVRYGYRAKEYKDIFEMYARTRDEGFGPEVKRRIMLGTFALSAGYYDAYYLKAQKVRRLITNDFLKAFEEVDVIASPTTPTLPFKFGERLENPIEMYLSDILTVPANLAGLPAISIPIAWKDGLPVGGQLIGKHWDETTLLQISYLWEQKFKHYEKIPLT
modifications: acyl-enzyme intermediate at Ser171 formed with Asn or Gln in the co-crystals
B1: binds.

B2: Aquifex aeolicus GatCAB C-subunit (GatC) (natural protein, UniProt O67904 1-94, looked up)
chain: MVDREWVLKIAKLARLELKEEEIEVFQKQLSDILDFIDQLKELDTENVEPYIQEFEETPMREDEPHPSLDREKALMNAPERKDGFFVVPRVVEV
B2: binds.
